Tests used:
[1] = test system: LNCaP cells; test: Cell Death Detection ELISA PLUS apoptosis assay; type: cell-based, human
Protocol: Data are shown as mean±S.E. Two group comparisons were analyzed by unpaired Student's t test. The level of significance for all statistical analyses was set at P<0.05. *** P<0.001 compared to control.

[2] = test system: MCF-7 cells; test: MTS cell proliferation assay
Protocol: (§1) To determine whether or not alterations in PDZD2 and sPDZD2 levels in inhibitor-treated cells are associated with any changes in the cell growth rate, we also monitored DU145, PC-3, 22Rv1, MCF-7 and Hep-G2 cell proliferation by MTS-based assays. Cell proliferation was measured by a tetrazolium-based Cell Titer 96® AQucous assay kit (Promega). Absorbance at 490 nm was recorded 3 hours after MTS addition.
(§2) Cell proliferation was measured by a tetrazolium-based Cell Titer 96® AQucous assay kit (Promega). Absorbance at 490 nm was recorded 3 hours after MTS addition. […] The number of viable cells was counted using hemocytometers. Any apoptotic effect on cancer cells induced by sPDZD2 was measured by the Cell Death Detection ELISA^PLUS assay kit (Roche), which detects the presence of mono- and oligonucleosomes in the cytoplasm of the cells after lysis. Briefly, the cancer cells (1×10^5/ml) were seeded in 24-well plates and treated with 10^−8 M and 10^−7 M sPDZD2 for 24 hours. After treatment, cells were harvested and any apoptosis was detected according to manufacturer's instructions.

[3] = test system: Hep-G2 cells; test: MTS cell proliferation assay
Protocol: as §1, §2

[4] = test system: 22Rv1 cells; test: MTS cell proliferation assay
Protocol: as §1, §2

[5] = test system: LNCaP cells; test: Trypan blue dye exclusion cell viability assay; type: cell-based, human
Protocol: The effects of sPDZD2 on cell viability were monitored by trypan blue dye exclusion assays. Data are shown as mean±S.E. Two group comparisons were analyzed by unpaired Student's t test. The level of significance for all statistical analyses was set at P<0.05. P<0.001 compared to control.

[6] = test system: DU145 prostate cancer xenograft tumors; test: DU145 prostate cancer xenograft tumor volume in nude mice; type: in vivo, male BALB/c athymic nude mice
Protocol: Data are shown as mean±S.E. Two group comparisons were analyzed by unpaired Student's t test. The level of significance for all statistical analyses was set at P<0.05. * P<0.05 compared to saline-treated control.
For in vivo studies, DU145 cancer cells (5×10^6) in 0.2 ml FBS-containing-EMEM medium were injected subcutaneously into the right flank of each male BALB/c athymic nude mice (weight, 20±2 g). After cancer cell injection, the mice were randomly divided into 3 groups, namely the control, low-dose treatment, and high-dose treatment groups. Ten days after tumor cell implantation, each mouse of the low-dose treatment group and high-dose treatment group was injected, respectively, once daily by the intraperitoneal route with 0.084 mg (in 0.1 ml saline) and 8.4 mg (in 0.1 ml saline) recombinant sPDZD2 for 58 days. The width and length of the tumor in millimeters were measured weekly by a caliper, when the implanted tumor became measurable. The tumor volume was calculated according to the following formula: Volume=d^2×D/2 mm^3, where d is the shorter width and D was the longer length.

[7] = test system: Hep-G2 cells; test: Trypan blue dye exclusion cell viability assay; type: cell-based, human; conditions: for viability of the cells: mean ± S.E.
[8] = test system: MCF-7 cells; test: Trypan blue dye exclusion cell viability assay; type: cell-based, human; conditions: for viability of the cells: mean ± S.E.
[9] = test system: DU 145 cells; test: Trypan blue dye exclusion cell viability assay; type: cell-based, human; conditions: for viability of the cells: DU 145, mean ± S.E.
[10] = test system: PC-3 cells; test: MTS cell proliferation assay
Protocol: as §1, §2

[11] = test system: PC-3 cells; test: Trypan blue dye exclusion cell viability assay; type: cell-based, human; conditions: for viability of the cells: mean ± S.E.
[12] = test system: DU145 cells; test: MTS cell proliferation assay
Protocol: as §1, §2

[13] = test system: 22Rv1 cells; test: Trypan blue dye exclusion cell viability assay; type: cell-based, human; conditions: for viability of the cells: mean ± S.E.
[14] = 10^−9 M, 10^−8 M, 10^−7 M sPDZD2, 24 and 48 hours, P<0.001
[15] = co-incubation 10^−8 M sPDZD2 with 10 μM Z-DEVD-FMK, 48 hours

B1: sPDZD2: secreted 37 kDa cleavage product of human PDZD2, tumor suppressor protein of SEQ ID NO: 2; recombinant form carries N-terminal AGH (protein)
chain: LDKLCSEDYSAGPSAVLFKTELEITPRRSPGPPAGGVSCPEKGGNRACPGGSGPKTSAAETPSSASDTGEAAQDLPFRRSWSVNLDQLLVSAGDQQRLQSVLSSVGSKSTILTLIQEAKAQSENEEDVCFIVLNRKEGSGLGFSVAGGTDVEPKSITVHRVFSQGAASQEGTMNRGDFLLSVNGASLAGLAHGNVLKVLHQAQLHKDALVVIKKGMDQPRPSARQEPPTANGKGLLSRKTIPLEPGIGRSVAVHDALCVEVLKTSAGLGLSLDGGKSSVTGDGPLVIKRVYKGGAAEQAGIIEAGDEILAINGKPLVGLMHFDAWNIMKSVPEGPVQLLIRKHRNSS
B1 was tested, and the “absorbance at 405 nm (mono- and oligo-nucleosomes in the cell cytoplasm, apoptosis)” value ([1]; 10^−7 M sPDZD2, 24 hours) was “Significant (P<0.001) increases”, the “absorbance at 405 nm (mono- and oligo-nucleosomes in the cell cytoplasm, apoptosis)” value ([1]; sPDZD2, 24 hours) was “Significant (P<0.001) increases” and the “decrease in cell proliferation” value ([2]; 10^−7 M sPDZD2 (first-named of '10^−7 M and 10^−7 M'), 24 hours) was 14.5%. For the same molecule, the “decrease in cell proliferation” value ([2]; 10^−7 M sPDZD2 (second-named), 24 hours) was 23.2%, the “decrease in cell proliferation” value ([2]; 10^−7 M sPDZD2, 48 hours) was 21.4% and the “effect on cell proliferation (in words)” value [2, 14] was “concentration-dependent inhibition”. The “decrease in cell proliferation” value ([2]; 1108 M sPDZD2, 48 hours) was 13.7%, the “effect on the increase in cell proliferation induced by caspase-3 inhibitor treatment” value [2, 15] was “abolished” and the “decrease in cell proliferation” value ([3]; 10^−7 M sPDZD2, 24 hours) was 23.1%. The “decrease in cell proliferation” value ([3]; 10^−7 M sPDZD2, 48 hours) was 22.2%, the “decrease in cell proliferation” value ([3]; 10^−8 M sPDZD2, 24 hours) was 21% and the “decrease in cell proliferation” value ([3]; 10^−8 M sPDZD2, 48 hours) was 17%. The “effect on cell proliferation (in words)” value [3, 14] was “concentration-dependent inhibition”, the “effect on the increase in cell proliferation induced by caspase-3 inhibitor treatment” value [3, 15] was “abolished” and the “decrease in cell proliferation” value ([4]; 10^−7 M sPDZD2, 24 hours) was 15.4%. The “decrease in cell proliferation” value ([4]; 10^−7 M sPDZD2, 48 hours) was 27.7%, the “decrease in cell proliferation” value ([4]; 10^−8 M sPDZD2, 24 hours) was 12.7% and the “effect on cell proliferation (in words)” value [4, 14] was “concentration-dependent inhibition”. The “effect on the increase in cell proliferation induced by caspase-3 inhibitor treatment” value [4, 15] was “abolished”, the “decrease in cell proliferation” value ([4]; sPDZD2, 48 hours) was 21.7% and the “decrease in cell viability” value ([5]; 10^−7 M sPDZD2, 24 hours) was 26.2%. The “decrease in cell viability” value ([5]; 10^−7 M sPDZD2, 48 hours) was 18.6%, the “decrease in cell viability” value ([5]; 10^−8M sPDZD2, 48 hours) was 14.7% and the “tumor volumes compared with saline-treated group” value ([6]; high dose 8.4 mg once daily intraperitoneal for 58 days, at 39, 46, 53, 60 and 67 days after tumor cell implantation) was “significant decreases”. For the same molecule, the “tumor volumes compared with saline-treated group” value ([6]; low dose 0.084 mg once daily intraperitoneal for 58 days) was “No significant differences”, the “viability of the cells” value ([7]; 10^−7M sPDZD2, 24 hrs.) was 93.37 ± 0.54% and the “viability of the cells” value ([7]; 10^−7M sPDZD2, 48 hrs.) was 93.58 ± 0.64%. The “viability of the cells” value ([7]; 10^−8M sPDZD2, 24 hrs.) was 93.38 ± 0.54%, the “viability of the cells” value ([7]; 10^−8M sPDZD2, 48 hrs.) was 93.64 ± 0.66% and the “changes in cell viability (in words)” value ([7]; sPDZD2, 24 and 48 hours) was “No changes”. The “viability of the cells” value ([8]; 10^−7M sPDZD2, 24 hrs.) was 97.34 ± 0.42%, the “viability of the cells” value ([8]; 10^−7M sPDZD2, 48 hrs.) was 92.07 ± 0.89% and the “viability of the cells” value ([8]; 10^−8M sPDZD2, 24 hrs.) was 96.69 ± 0.50%. The “viability of the cells” value ([8]; 10^−8M sPDZD2, 48 hrs.) was 93.86 ± 0.76%, the “changes in cell viability (in words)” value ([8]; sPDZD2, 24 and 48 hours) was “No changes” and the “viability of the cells” value ([9]; 10^−7M sPDZD2, 24 hrs.) was 93.78 ± 1.06%. For the same molecule, the “viability of the cells” value ([9]; 10^−7M sPDZD2, 48 hrs.) was 95.25 ± 0.88%, the “viability of the cells” value ([9]; 10^−8M sPDZD2, 24 hrs.) was 94.66 ± 0.69% and the “viability of the cells” value ([9]; 10^−8M sPDZD2, 48 hrs.) was 95.09 ± 1.02%. The “changes in cell viability (in words)” value ([9]; DU145, sPDZD2, 24 and 48 hours) was “No changes”, the “decrease in cell proliferation” value ([10]; 10^−7 M sPDZD2, 24 hours) was 22.6% and the “decrease in cell proliferation” value ([10]; 10^−7 M sPDZD2, 48 hours) was 41.6%. The “decrease in cell proliferation” value ([10]; 10^−8M sPDZD2, 24 hours) was 13.5%, the “decrease in cell proliferation” value ([10]; 10^−8 M sPDZD2, 48 hours) was 23.8% and the “effect on cell proliferation (in words)” value [10, 14] was “concentration-dependent inhibition”. The “effect on the increase in cell proliferation induced by caspase-3 inhibitor treatment” value [10, 15] was “abolished”, the “viability of the cells” value ([11]; 10^−7M sPDZD2, 24 hrs.) was 90.86 ± 1.12% and the “viability of the cells” value ([11]; 10^−7M sPDZD2, 48 hrs.) was 95.45 ± 0.56%. For the same molecule, the “viability of the cells” value ([11]; 10^−8M sPDZD2, 24 hrs.) was 95.03 ± 1.00%, the “viability of the cells” value ([11]; 10^−8M sPDZD2, 48 hrs.) was 95.49 ± 0.79% and the “changes in cell viability (in words)” value ([11]; sPDZD2, 24 and 48 hours) was “No changes”. The “decrease in cell proliferation” value ([12]; 10^−7 M sPDZD2, 24 hours) was 29.9%, the “decrease in cell proliferation” value ([12]; 10^−7 M sPDZD2, 48 hours) was 43.5% and the “decrease in cell proliferation” value ([12]; 10^−8 M sPDZD2, 24 hours) was 25.8%. For the same molecule, the “decrease in cell proliferation” value ([12]; 10^−8 M sPDZD2, 48 hours) was 38.6%, the “effect on cell proliferation (in words)” value [12, 14] was “concentration-dependent inhibition” and the “effect on the increase in cell proliferation induced by caspase-3 inhibitor treatment” value [12, 15] was “abolished”. For the same molecule, the “viability of the cells” value ([13]; 10^−7M sPDZD2, 24 hrs.) was 96.04 ± 0.50%, the “viability of the cells” value ([13]; 10^−7M sPDZD2, 48 hrs.) was 92.65 ± 0.48% and the “viability of the cells” value ([13]; 10^−8M sPDZD2, 24 hrs.) was 96.01 ± 0.38%. For the same molecule, the “viability of the cells” value ([13]; 10^−8M sPDZD2, 48 hrs.) was 93.02 ± 0.47% and the “changes in cell viability (in words)” value ([13]; sPDZD2, 24 and 48 hours) was “No changes”.

Reference: patent US20090062189A1, “TUMOR SUPPRESSOR PROTEIN AND NUCLEOTIDE ENCODING SAME” (priority 2006, published 2009)
